{"source": "patent US20030100484A1", "biological_target": "urotensin II receptor (human) (UniProt Q9UKP6)", "sequence (Q9UKP6 whole entry)": "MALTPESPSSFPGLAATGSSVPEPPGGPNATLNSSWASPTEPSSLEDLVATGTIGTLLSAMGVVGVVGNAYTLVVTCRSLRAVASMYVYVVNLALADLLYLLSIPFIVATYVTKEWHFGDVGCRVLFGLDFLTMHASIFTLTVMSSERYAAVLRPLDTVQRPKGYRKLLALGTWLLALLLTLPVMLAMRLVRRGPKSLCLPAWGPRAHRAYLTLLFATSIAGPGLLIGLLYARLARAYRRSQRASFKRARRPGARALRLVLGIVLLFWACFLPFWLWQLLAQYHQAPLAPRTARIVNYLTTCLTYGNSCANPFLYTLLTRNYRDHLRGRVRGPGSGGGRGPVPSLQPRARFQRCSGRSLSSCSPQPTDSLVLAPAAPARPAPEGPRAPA", "assay": "cell-based or functional assay", "data": [{"substance": "urotensin II (from UniProt O95399 114-124) (peptide)", "values": [{"measurement": "CTGF mRNA (real-time PCR, GAPDH mRNA as reference) in human heart fibroblasts after 6 h with 1 µM urotensin II; control 0.45 +/- 0.27 (relative to GAPDH mRNA)", "value": 0.88}, {"measurement": "Col 1 mRNA (real-time PCR, GAPDH mRNA as reference) in human heart fibroblasts after 6 h with 1 µM urotensin II; control 0.56 +/- 0.1 (relative to GAPDH mRNA)", "value": 0.92}, {"measurement": "MMP 2 mRNA (real-time PCR, GAPDH mRNA as reference) in human heart fibroblasts after 6 h with 1 µM urotensin II; control 0.43 +/- 0.2 (relative to GAPDH mRNA)", "value": 0.65}, {"measurement": "TGFbeta1 mRNA (real-time PCR, GAPDH mRNA as reference) in human heart fibroblasts after 6 h with 1 µM urotensin II; control 0.60 +/- 0.09 (relative to GAPDH mRNA)", "value": 0.81}]}]}
